# Measured values as given in IntAct's records for PubMed 30496485.
# B1: Coiled-coil-helix-coiled-coil-helix domain-containing protein 2 (Homo sapiens), Q9Y6H1 (parent)
# chain: MPRGSRSRTSRMAPPASRAPQMRAAPRPAPVAQPPAAAPPSAVGSSAAAPRQPGLMAQMATTAAGVAVGSAVGHTLGHAITGGFSGGSNAEPARPDITYQEPQGTQPAQQQQPCLYEIKQFLECAQNQGDIKLCEGFNEVLKQCRLANGLA
# partner: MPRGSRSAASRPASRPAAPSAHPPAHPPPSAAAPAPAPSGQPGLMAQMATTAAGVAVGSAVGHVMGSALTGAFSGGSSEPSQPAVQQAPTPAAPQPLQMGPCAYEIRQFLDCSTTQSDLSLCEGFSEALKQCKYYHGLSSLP
# Variants of: B1
# Details: with chc10_human CHCHD10, Q8WYQ3
row,Variant,effect of a mutation on the interaction
1,R145Q,disrupting interaction strength
2,T61I,disrupting interaction strength
